The target in experiment [1] is recombinant human HIRA(661–1017) (human) (UniProt P54198). As to the kind of experiment: AUC; sedimentation velocity, c(S) model in SEDFIT, 141,995×g; buffer with 300 mM NaCl, and also with 150 mM NaCl with consistent values.
For experiment [2] the target is unchanged. As to the kind of experiment: AUC; sedimentation equilibrium of the HIRA(661–1017)–CABIN1 FL complex isolated from a size-exclusion peak, slightly lower rotor speeds; 4 °C, 20 mM Tris pH 8.0, 300 mM NaCl, 1 mM TCEP; SEDPHAT ABBB model (A the HIRA trimer, B a CABIN1 monomer), apparent constants. (In general: SEC sorts molecules by how far they enter the pores of the column.)

Where only a bound is given, the exact number is not on record here.

Chain of CABIN1 full length (FL), recombinant, Q9Y6J0 1-2220 (natural protein) (Q9Y6J0 whole entry): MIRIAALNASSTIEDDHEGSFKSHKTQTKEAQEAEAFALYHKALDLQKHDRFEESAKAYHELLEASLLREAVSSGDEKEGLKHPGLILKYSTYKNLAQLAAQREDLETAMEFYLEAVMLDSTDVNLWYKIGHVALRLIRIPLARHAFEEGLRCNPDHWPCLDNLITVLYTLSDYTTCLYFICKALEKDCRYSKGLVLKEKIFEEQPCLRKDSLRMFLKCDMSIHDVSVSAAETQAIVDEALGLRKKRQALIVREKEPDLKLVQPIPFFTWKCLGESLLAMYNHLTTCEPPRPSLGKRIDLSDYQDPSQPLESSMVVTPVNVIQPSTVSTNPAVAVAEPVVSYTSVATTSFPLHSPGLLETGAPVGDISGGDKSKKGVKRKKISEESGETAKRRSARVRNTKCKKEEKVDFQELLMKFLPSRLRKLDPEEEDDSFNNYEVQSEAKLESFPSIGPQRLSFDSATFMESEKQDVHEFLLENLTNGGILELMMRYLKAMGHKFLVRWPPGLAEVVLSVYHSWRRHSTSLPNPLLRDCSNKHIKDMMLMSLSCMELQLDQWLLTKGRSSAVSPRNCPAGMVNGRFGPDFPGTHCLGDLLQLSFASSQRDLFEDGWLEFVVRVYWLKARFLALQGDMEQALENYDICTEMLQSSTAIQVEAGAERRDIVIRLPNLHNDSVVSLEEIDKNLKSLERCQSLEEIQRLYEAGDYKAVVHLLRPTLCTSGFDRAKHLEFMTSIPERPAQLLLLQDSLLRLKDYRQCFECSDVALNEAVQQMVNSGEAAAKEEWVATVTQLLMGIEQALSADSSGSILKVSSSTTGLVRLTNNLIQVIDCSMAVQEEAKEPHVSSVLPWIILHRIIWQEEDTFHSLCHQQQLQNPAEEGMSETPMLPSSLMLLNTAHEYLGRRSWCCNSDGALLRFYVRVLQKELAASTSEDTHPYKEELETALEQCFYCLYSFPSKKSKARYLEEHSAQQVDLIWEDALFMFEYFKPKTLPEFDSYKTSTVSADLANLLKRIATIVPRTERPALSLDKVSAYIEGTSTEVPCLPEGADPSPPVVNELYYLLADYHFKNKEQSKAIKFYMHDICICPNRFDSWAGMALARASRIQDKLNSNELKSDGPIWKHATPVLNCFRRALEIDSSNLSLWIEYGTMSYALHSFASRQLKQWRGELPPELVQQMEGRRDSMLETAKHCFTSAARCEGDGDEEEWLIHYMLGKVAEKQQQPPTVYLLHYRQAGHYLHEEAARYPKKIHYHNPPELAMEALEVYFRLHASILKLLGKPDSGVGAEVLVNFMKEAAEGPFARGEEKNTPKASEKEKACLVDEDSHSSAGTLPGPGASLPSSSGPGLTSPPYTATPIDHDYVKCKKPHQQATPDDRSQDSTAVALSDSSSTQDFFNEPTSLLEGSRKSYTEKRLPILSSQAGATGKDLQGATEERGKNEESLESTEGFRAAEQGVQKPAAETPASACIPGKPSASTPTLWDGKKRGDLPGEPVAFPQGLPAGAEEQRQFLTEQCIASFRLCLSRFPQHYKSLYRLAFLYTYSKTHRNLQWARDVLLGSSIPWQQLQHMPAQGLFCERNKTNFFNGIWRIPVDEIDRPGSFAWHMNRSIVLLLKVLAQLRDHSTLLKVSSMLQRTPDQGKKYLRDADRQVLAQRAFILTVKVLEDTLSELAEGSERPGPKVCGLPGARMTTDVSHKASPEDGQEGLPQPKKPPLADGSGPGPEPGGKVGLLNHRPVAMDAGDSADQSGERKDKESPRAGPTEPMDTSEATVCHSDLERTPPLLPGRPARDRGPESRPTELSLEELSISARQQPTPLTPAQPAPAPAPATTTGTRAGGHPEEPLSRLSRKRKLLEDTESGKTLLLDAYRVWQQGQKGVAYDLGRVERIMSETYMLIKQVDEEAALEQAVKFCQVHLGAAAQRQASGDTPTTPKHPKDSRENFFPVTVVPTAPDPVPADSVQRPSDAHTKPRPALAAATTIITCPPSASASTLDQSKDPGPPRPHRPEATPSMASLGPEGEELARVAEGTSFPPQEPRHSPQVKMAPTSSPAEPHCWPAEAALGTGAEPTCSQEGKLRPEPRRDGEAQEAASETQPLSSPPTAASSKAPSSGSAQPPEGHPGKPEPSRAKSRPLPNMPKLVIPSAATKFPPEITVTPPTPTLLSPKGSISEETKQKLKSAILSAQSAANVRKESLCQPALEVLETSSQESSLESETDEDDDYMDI
Chain of recombinant human HIRA(661–1017) (human) (P54198 661-1017): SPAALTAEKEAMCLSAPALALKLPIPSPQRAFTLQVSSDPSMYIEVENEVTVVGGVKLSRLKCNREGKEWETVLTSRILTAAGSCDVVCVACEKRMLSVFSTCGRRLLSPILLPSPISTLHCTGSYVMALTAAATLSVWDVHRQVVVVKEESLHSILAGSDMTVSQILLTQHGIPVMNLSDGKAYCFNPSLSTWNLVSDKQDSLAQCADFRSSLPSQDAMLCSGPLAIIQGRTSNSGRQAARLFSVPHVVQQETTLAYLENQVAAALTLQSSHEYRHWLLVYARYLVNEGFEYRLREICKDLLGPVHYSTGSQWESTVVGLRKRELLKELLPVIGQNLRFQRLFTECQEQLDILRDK

Regarding “CABIN1 full length (FL), recombinant, Q9Y6J0 1-2220 (natural protein)”, the stoichiometry N (CABIN1 per HIRA trimer) in experiment [1] came to 2. For the same substance, in experiment [2], the Kd, third binding event was 10 µM; the apparent Kd, first two binding events is below 1 nM; the stoichiometry N (CABIN1 per HIRA trimer) was 2.

For the origin of these results see paper PMC6078998.
